Measured values as given in PMC10397247.
Like-named read-outs stand apart in the source and are kept apart here.

Tests used:
[1] = target: T1, P2-AA-1HGe-Q; assay: two-hybrid library CCmax; conditions: mean of both orientations;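 note: natural log of median RNA to DNA barcode read ratio; higher means stronger binding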
T1 chain: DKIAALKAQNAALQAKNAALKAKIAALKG

[2] = target: T2, P2-AA; assay: two-hybrid library CCmax; conditions: mean of both orientations;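 note: natural log of median RNA to DNA barcode read ratio; higher means stronger binding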
T2 chain: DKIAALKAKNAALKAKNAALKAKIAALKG

[3] = target: T3, P2-AA-1HGe-D; assay: two-hybrid library CCmax; conditions: mean of both orientations;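 note: natural log of median RNA to DNA barcode read ratio; higher means stronger binding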
T3 chain: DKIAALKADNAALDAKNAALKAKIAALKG

[4] = target: T4, P2-AA-1HGe-A; assay: two-hybrid library CCmax; conditions: mean of both orientations;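 note: natural log of median RNA to DNA barcode read ratio; higher means stronger binding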
T4 chain: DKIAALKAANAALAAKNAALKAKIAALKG

[5] = target: T5, P2-AA-1HGe-M; assay: two-hybrid library CCmax; conditions: mean of both orientations;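 note: natural log of median RNA to DNA barcode read ratio; higher means stronger binding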
T5 chain: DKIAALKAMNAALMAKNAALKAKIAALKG

[6] = target: T6, P2-AA-1HGe-T; assay: two-hybrid library CCmax;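 note: natural log of median RNA to DNA barcode read ratio; higher means stronger binding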
T6 chain: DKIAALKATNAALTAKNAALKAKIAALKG

[7] = target: T7, O6; assay: two-hybrid library CCNG1
T7 chain: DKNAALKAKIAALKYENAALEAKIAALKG

[8] = target: T8, O4; assay: two-hybrid library CCNG1
T8 chain: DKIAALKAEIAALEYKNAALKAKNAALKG

[9] = target: T9, O8; assay: two-hybrid library CCNG1
T9 chain: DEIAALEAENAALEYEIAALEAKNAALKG

[10] = target: T10, O7; assay: two-hybrid library CCNG1
T10 chain: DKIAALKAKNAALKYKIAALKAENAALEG

[11] = target: T11, O9; assay: two-hybrid library CCNG1
T11 chain: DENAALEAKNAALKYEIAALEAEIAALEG

[12] = target: T12, O5; assay: two-hybrid library CCNG1
T12 chain: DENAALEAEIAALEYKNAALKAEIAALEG

[13] = target: T13, 4H3417-AA; assay: two-hybrid library CCmax; conditions: mean of both orientations
T13 chain: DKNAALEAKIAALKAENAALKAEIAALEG

[14] = target: T14, 4H3066-AA; assay: two-hybrid library CCmax; conditions: mean of both orientations
T14 chain: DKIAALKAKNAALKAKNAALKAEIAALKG

[15] = target: T15, 4H2248-AA; assay: two-hybrid library CCmax
T15 chain: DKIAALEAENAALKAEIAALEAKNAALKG

[16] = target: T16, 4H3446-AA; assay: two-hybrid library CCmax; conditions: mean of both orientations
T16 chain: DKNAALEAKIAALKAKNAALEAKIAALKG

[17] = target: T17, 4H675-AA; assay: two-hybrid library CCmax; conditions: mean of both orientations
T17 chain: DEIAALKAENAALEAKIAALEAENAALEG

[18] = target: T18, 4H478-AA; assay: two-hybrid library CCmax; conditions: mean of both orientations
T18 chain: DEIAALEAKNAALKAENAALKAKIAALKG

[19] = target: T19, 4H3666-AA; assay: two-hybrid library CCmax; conditions: mean of both orientations
T19 chain: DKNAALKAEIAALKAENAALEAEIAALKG

[20] = target: T20, 4H497-AA; assay: two-hybrid library CCmax; conditions: mean of both orientations
T20 chain: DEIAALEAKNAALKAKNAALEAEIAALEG

[21] = target: T21, 4H3939-AA; assay: two-hybrid library CCmax; conditions: mean of both orientations
T21 chain: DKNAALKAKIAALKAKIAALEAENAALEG

[22] = target: T22, 4H3121-AA; assay: two-hybrid library CCmax; conditions: mean of both orientations
T22 chain: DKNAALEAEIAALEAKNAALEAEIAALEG

[23] = target: T23, 4H428-AA; assay: two-hybrid library CCmax; conditions: mean of both orientations
T23 chain: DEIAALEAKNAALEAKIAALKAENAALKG

[24] = target: T24, 4H2991-AA; assay: two-hybrid library CCmax; conditions: mean of both orientations
T24 chain: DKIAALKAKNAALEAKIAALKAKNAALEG

[25] = target: T25, 4H656-AA; assay: two-hybrid library CCmax; conditions: mean of both orientations
T25 chain: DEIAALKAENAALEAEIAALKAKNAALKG

[26] = target: T26, 4H3029-AA; assay: two-hybrid library CCmax; conditions: mean of both orientations
T26 chain: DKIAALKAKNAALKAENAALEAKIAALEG

[27] = target: T27, 4H2948-AA; assay: two-hybrid library CCmax; conditions: mean of both orientations
T27 chain: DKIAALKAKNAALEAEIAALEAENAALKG

[28] = target: T28, 4H2283-AA; assay: two-hybrid library CCmax; conditions: mean of both orientations
T28 chain: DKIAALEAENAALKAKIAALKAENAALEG

[29] = target: T29, 4H2713-AA; assay: two-hybrid library CCmax; conditions: mean of both orientations
T29 chain: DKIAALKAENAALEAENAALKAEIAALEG

[30] = target: T30, 4H3591-AA; assay: two-hybrid library CCmax; conditions: mean of both orientations
T30 chain: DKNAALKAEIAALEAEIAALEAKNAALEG

[31] = target: T31, 4H971-AA; assay: two-hybrid library CCmax; conditions: mean of both orientations
T31 chain: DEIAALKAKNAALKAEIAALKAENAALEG

[32] = target: T32, 4H3920-AA; assay: two-hybrid library CCmax; conditions: mean of both orientations
T32 chain: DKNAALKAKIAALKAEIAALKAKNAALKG

[33] = target: T33, 4H3102-AA; assay: two-hybrid library CCmax; conditions: mean of both orientations
T33 chain: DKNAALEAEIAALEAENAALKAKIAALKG

[34] = target: T34, 4H2742-AA; assay: two-hybrid library CCmax; conditions: mean of both orientations
T34 chain: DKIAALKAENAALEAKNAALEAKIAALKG

[35] = target: T35, 4H3628-AA; assay: two-hybrid library CCmax; conditions: mean of both orientations
T35 chain: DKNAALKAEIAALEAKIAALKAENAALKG

[36] = target: T36, 4H3709-AA; assay: two-hybrid library CCmax; conditions: mean of both orientations
T36 chain: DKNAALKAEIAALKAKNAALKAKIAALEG

[37] = target: T37, 4H391-AA; assay: two-hybrid library CCmax; conditions: mean of both orientations
T37 chain: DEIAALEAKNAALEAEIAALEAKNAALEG

[38] = target: T38, 4H2726-AA; assay: two-hybrid library CCmax; conditions: mean of both orientations
T38 chain: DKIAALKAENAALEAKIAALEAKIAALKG

[39] = target: T39, 4H369-AA; assay: two-hybrid library CCmax; conditions: mean of both orientations
T39 chain: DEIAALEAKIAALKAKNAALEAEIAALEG

[40] = target: T40, 4H662-AA; assay: two-hybrid library CCmax; conditions: mean of both orientations
T40 chain: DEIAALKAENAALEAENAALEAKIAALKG

[41] = target: T41, 4H3664-AA; assay: two-hybrid library CCmax; conditions: mean of both orientations
T41 chain: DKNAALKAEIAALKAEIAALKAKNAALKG

[42] = target: T42, 4H2935-AA; assay: two-hybrid library CCmax; conditions: mean of both orientations
T42 chain: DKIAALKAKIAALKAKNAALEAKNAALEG

[43] = target: T43, 4H327-AA; assay: two-hybrid library CCmax; conditions: mean of both orientations
T43 chain: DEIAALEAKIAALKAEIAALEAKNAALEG

[44] = target: T44, 4H3922-AA; assay: two-hybrid library CCmax; conditions: mean of both orientations
T44 chain: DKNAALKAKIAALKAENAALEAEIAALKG

[45] = target: T45, 4H2614-AA; assay: two-hybrid library CCmax
T45 chain: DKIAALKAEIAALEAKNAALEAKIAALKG

[46] = target: T46, 4H4033-AA; assay: two-hybrid library CCmax; conditions: mean of both orientations
T46 chain: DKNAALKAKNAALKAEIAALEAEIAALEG

[47] = target: T47, 4H3605-AA; assay: two-hybrid library CCmax; conditions: mean of both orientations
T47 chain: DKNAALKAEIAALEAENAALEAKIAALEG

[48] = target: T48, 4H481-AA; assay: two-hybrid library CCmax; conditions: mean of both orientations
T48 chain: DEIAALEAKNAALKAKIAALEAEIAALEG

[49] = target: T49, 4H3625-AA; assay: two-hybrid library CCmax; conditions: mean of both orientations
T49 chain: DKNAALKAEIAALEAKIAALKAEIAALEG

[50] = target: T50, 4H55-AA; assay: two-hybrid library CCmax; conditions: mean of both orientations
T50 chain: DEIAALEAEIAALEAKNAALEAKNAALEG

[51] = target: T51, 4H3638-bA; assay: two-hybrid library CCNG1
T51 chain: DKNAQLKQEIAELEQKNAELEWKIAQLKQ

[52] = target: T52, 4H3462-bA; assay: two-hybrid library CCNG1
T52 chain: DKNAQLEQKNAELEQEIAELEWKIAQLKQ

[53] = target: T53, 4H591-bA; assay: two-hybrid library CCNG1
T53 chain: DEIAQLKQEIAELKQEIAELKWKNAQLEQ

[54] = target: T54, 4H626-bA; assay: two-hybrid library CCNG1
T54 chain: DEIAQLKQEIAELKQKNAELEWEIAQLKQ

[55] = target: T55, 4H3497-bA; assay: two-hybrid library CCNG1
T55 chain: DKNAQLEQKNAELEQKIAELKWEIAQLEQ

[56] = target: T56, 4H3628-bA; assay: two-hybrid library CCNG1
T56 chain: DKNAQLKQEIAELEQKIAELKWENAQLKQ

[57] = target: T57, 4H3926-bA; assay: two-hybrid library CCNG1
T57 chain: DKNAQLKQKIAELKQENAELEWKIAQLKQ

[58] = target: T58, 4H906-bA; assay: two-hybrid library CCNG1
T58 chain: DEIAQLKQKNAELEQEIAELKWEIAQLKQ

[59] = target: T59, 4H3613-bA; assay: two-hybrid library CCNG1
T59 chain: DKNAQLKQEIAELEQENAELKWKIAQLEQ

DEIAALEADNAALDAENAALEAEIAALEG [P1-AA-1HGe-D]
interaction score [1]: 2.03 | interaction score [2]: 1.91 | interaction score [3]: 0.303 | interaction score [4]: 1.58 | interaction score [5]: 1.74 | interaction score ([6]; mean of both orientations): 1.92

DEIAALEAQNAALQAENAALEAEIAALEG [P1-AA-1HGe-Q]
interaction score [1]: 2.11 | interaction score [2]: 1.75 | interaction score [3]: 1.67 | interaction score [4]: 2.14 | interaction score [5]: 2.05 | interaction score ([6]; mean of both orientations): 2.21

DKIAALKAEIAALEYKNAALKAKNAALKG [O4]
interaction score [7]: -2.27 | interaction score [8]: -2.15 | interaction score [9]: -2.07 | interaction score [10]: -2.43 | interaction score [11]: -1.88 | interaction score [12]: -2.52

DKIAALEAENAALKAEIAALEAKNAALKG [4H2248-AA]
interaction score [13]: 0.548 | interaction score [14]: -1.25 | interaction score [15]: 2.16 | interaction score [16]: 0.189 | interaction score [17]: 0.827 | interaction score [18]: 0.536 | interaction score [19]: -0.505 | interaction score [20]: -2.18 | interaction score [21]: -1.4 | interaction score [22]: -1.69 | interaction score [23]: -0.478 | interaction score [24]: -0.183 | interaction score [25]: -0.26 | interaction score [26]: -1.79 | interaction score [27]: -0.353 | interaction score [28]: 2.34 | interaction score [29]: -1.2 | interaction score [30]: -1.39 | interaction score [31]: 1.05 | interaction score [32]: -1.51 | interaction score [33]: 2.22 | interaction score [34]: -1.88 | interaction score [35]: -1.59 | interaction score [36]: -1.23 | interaction score [37]: -1.16

DEIAALEASNAALSAENAALEAEIAALEG [P1-AA-1HGe-S]
interaction score [1]: 2.06 | interaction score [2]: 2.03 | interaction score [3]: 1.63 | interaction score [4]: 1.81 | interaction score [5]: 2.01 | interaction score [6]: 2.01

DKIAALKAEIAALEAKNAALEAKIAALKG [4H2614-AA]
interaction score [38]: -0.336 | interaction score [39]: 2.41 | interaction score [40]: -1.17 | interaction score [41]: -1.11 | interaction score [42]: 0.084 | interaction score [43]: -0.0398 | interaction score [44]: 0.659 | interaction score [45]: 1.46 | interaction score [46]: -1.43 | interaction score [47]: -0.49 | interaction score [48]: 1.06 | interaction score [49]: 0.314 | interaction score [50]: -0.185

DEIAALEARNAALRAENAALEAEIAALEG [P1-AA-1HGe-R]
interaction score [1]: 2.26 | interaction score [2]: 1.49 | interaction score [3]: 1.67 | interaction score [4]: 1.97 | interaction score [5]: 1.7 | interaction score ([6]; mean of both orientations): 2.2

DKNAQLEQKNAELEQEIAELEWKIAQLKQ [4H3462-bA]
interaction score [51]: -1.05 | interaction score [52]: 0.257 | interaction score [53]: 0.153 | interaction score [54]: -0.693 | interaction score [55]: 0.917 | interaction score [56]: -1.42 | interaction score [57]: 0.717 | interaction score [58]: -1.46 | interaction score [59]: -0.827

DEIAALEATNAALTAENAALEAEIAALEG [P1-AA-1HGe-T]
interaction score [1]: 2.05 | interaction score [2]: 2.07 | interaction score [3]: 1.17 | interaction score [4]: 2.18 | interaction score [5]: 1.53 | interaction score ([6]; mean of both orientations): 2
